In one test the test system is HAB1. Description: In vitro PP2C phosphatase (pNPP) receptor activation assay with HAB1. It is filed as biochemical, Arabidopsis. As to conditions: 600 nM GST-HAB1, 0-4800 nM receptor, no ABA. On the procedure: Recombinant receptor proteins were produced as follows: Coding sequences were cloned into pET28 yielding 6×HIS (SEQ ID NO:173) fusions proteins and transformed into E. coli expression strain BL21. […]. Cells were stored at −80° C. before purification. After thawing, cells were sonicated on ice five times for 30 sec with 30 sec resting intervals. A cleared lysate was obtained after centrifugation at 12,000×g for 10 min and applied to 1 ml of Ni-NTA column (Qiagen) and washed with 20 column volumes of Buffer A containing 30 mM imidazole. Bound protein was eluted with 10 ml of Buffer A with 250 mM imidazole. The elutate was dialyzed against TBS. The purified recombinant proteins were then used together with recombinant phosphatases in receptor assays. In these assays, receptor activity is indicated by inhibition of phosphatase activity, as inferred from initial reaction velocities for GST-HAB1 mediated hydrolysis of the synthetic phosphatase substrate pNPP. Reactions contained 600 nM GST-HAB1 and either 0, 600, 1200, 2400 or 4800 nM 6×His-PYR1 or variants in a reaction buffer consisting of 33 mM Tris-OAc, pH 7.9, 66 mM KOAc, 0.1% BSA, 25 mM Mn(OAc)2, 50 mM pNPP. To infer the level of receptor activation with respect to fully activated wild type receptor, control reactions were also conducted using saturating levels of (+)-ABA (10 μM), and 600 nM wild type PYR1 and HAB1. Immediately after mixing proteins and substrates, reactions were monitored for hydrolysis of pNPP at A405 at ˜10 second intervals over 20 minutes using a Wallac plate reader. Reaction progressions were plotted, initial velocities calculated and converted to specific activities using a standard curve for 4-nitrophenol made in the same buffer system volumes/plate reader used for enzymatic reaction measurements. The values shown are expressed as %-control phosphatase activity levels as measured in the absence of receptor protein. The average specific activity level of GST-HAB1 utilized in our experiments was 4000 μmol/min/mg, when assayed on the phosphatase substrate pNPP in the absence of PYR1 or other receptors, as described using the methods above.
(§1) Full length ABI1 and ABI2 were cloned into a modified pSUMO vector (LifeSensors Inc, USA) vector yielding 6×His-SUMO fusion proteins; GST-HAB1 was expressed and purified as previously described (Park et al., 2009). Mutant receptors were cloned into pET28 yielding 6×His-fusion proteins. […]. The cultures were pre-incubated 2 hours at 30° C. and, for PP2C expression, media was supplemented with 4 mM MnCl2 one hour after inoculation. After pre-incubation, IPTG was added (1 mM) and cells were induced at 15° C. for 16 hours, after which they were collected by centrifugation, resuspended in 5 ml Buffer A (50 mM NaH2PO4, 300 mM NaCl) +10 mM imidazole, pH 8.0 and stored at −80° C. For purification, cells were thawed, sonicated on ice (60 seconds) and a cleared lysate was then applied a 1 ml-bed volume column of Ni-NTA (Qiagen, USA), washed with 20 column volumes of Buffer A+30 mM imidazole and bound protein eluted with 1 ml of Buffer A+250 mM imidazole. For receptors, the elutate was dialyzed against TBS and for PP2Cs, fusion proteins were desalted by passage over a Sephadex G50 column.
The purified receptors and phosphatases were then used in receptor assays where receptor activation is indicated by inhibition of phosphatase activity, as inferred from initial reaction velocities for PP2C-mediated hydrolysis of the synthetic phosphatase substrate pNPP in reactions containing 600 nM PP2C and either 0, 600, 1200, 2400 or 4800 nM receptor. The receptor assay buffer consisted of 33 mM Tris-OAc, pH 7.9, 66 mM KOAc, 0.1% BSA, 25 mM Mn(OAc)2, 0.1%13-ME and 50 mM pNPP. Immediately after mixing proteins and substrates, reactions were monitored for hydrolysis of pNPP at A405 at ˜2 minutes intervals using a Wallac plate reader. […]

The target in a further test is T1, ABI1 (Arabidopsis thaliana, UniProt P49597).
T1 construct: Full length ABI1 and ABI2 were cloned into a modified pSUMO vector; made in house; host or cells: E. coli BL21 (DE3) pLysS
T1 sequence (P49597 1-434): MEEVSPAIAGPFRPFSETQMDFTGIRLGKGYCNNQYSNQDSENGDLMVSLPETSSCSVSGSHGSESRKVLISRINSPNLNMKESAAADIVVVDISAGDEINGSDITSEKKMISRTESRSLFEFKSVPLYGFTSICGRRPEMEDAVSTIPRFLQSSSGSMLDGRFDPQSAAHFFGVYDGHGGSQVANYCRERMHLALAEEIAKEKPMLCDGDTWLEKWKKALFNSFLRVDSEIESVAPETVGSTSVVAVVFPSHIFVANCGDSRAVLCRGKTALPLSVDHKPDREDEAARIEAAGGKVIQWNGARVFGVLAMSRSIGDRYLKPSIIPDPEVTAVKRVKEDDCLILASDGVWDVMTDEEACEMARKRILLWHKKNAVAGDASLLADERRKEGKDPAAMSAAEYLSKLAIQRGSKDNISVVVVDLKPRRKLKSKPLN
Description: In vitro PP2C phosphatase (pNPP) receptor activation assay with ABI1. The class given is biochemical. As to conditions: 600 nM PP2C, 0-4800 nM receptor, no ABA. On the procedure: as §1
The purified receptors and phosphatases were then used in receptor assays where receptor activation is indicated by inhibition of phosphatase activity, as inferred from initial reaction velocities for PP2C-mediated hydrolysis of the synthetic phosphatase substrate pNPP in reactions containing 600 nM PP2C and either 0, 600, 1200, 2400 or 4800 nM receptor. The receptor assay buffer consisted of 33 mM Tris-OAc, pH 7.9, 66 mM KOAc, 0.1% BSA, 25 mM Mn(OAc)2, 0.1%13-ME and 50 mM pNPP. Immediately after mixing proteins and substrates, reactions were monitored for hydrolysis of pNPP at A405 at ˜2 minutes intervals using a Wallac plate reader. Reaction progressions were plotted, initial velocities calculated and converted to specific activities by comparison to a standard curve for 4-nitrophenol made in the same buffer system. PP2C activity values shown in figures are expressed as %-control phosphatase activity levels, as measured under identical reaction conditions in the absence of receptor protein. The average specific activity level of GST-HAB1, 6×His-SUMO-ABI1 and 6×His-SUMO-ABI2 utilized in our experiments was 4500 (GST-PP2C) or 2500 (SUMO-PP2C) μmol/min/mg, when assayed using the phosphatase substrate pNPP in the absence of PYR1 or other receptors.

B1: PYL2^CA3: PYL2 mutant (H65P, V87F, F165V); expressed in plants as 35S-driven GFP fusion (protein)
chain: HHHHHHMSSSPAVKGLTDEEQKTLEPVIKTYHQFEPDPTTCTSLITQRIHAPASVVWPLIRRFDNPERYKPFVKRCRLISGDGDVGSVREVTFISGLPASTSTERLEFVDDDHRVLSFRVVGGEHRLKNYKSVTSVNEFLNQDSGKVYTVVLESYTVDIPEGNTEEDTKMVVDTVVKLNLQKLGVAATSAPMHDDE
On to B1, for which the “basal receptor activity (inhibition of HAB1 phosphatase activity in the absence of ABA)” value in the test on HAB1 is reported as “highly activated in the absence of ABA”. Moreover, the “constitutive receptor activity on ABI1 in the absence of ABA” value with ABI1 is “active towards multiple PP2Cs”.
